First the molecules themselves.
T1: human CD166 protein (human, UniProt Q13740 28-526)
T1 chain: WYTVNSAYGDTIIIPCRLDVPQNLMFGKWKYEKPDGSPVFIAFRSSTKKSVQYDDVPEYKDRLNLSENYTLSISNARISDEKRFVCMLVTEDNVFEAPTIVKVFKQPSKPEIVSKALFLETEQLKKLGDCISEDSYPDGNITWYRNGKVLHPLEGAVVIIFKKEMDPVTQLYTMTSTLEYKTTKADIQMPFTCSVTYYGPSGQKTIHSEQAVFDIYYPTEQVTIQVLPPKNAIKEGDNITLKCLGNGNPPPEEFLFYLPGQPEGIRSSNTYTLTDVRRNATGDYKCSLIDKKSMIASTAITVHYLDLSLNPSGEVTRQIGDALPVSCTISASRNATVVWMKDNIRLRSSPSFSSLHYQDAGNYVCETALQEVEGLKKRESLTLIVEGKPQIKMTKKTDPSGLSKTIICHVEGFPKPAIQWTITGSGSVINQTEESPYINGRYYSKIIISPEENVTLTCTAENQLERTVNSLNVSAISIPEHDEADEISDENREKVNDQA

B1: human CD166 (receptor)
chain: WYTVNSAYGDTIIIPCRLDVPQNLMFGKWKYEKPDGSPVFIAFRSSTKKSVQYDDVPEYKDRLNLSENYTLSISNARISDEKRFVCMLVTEDNVFEAPTIVKVFKQPSKPEIVSKALFLETEQLKKLGDCISEDSYPDGNITWYRNGKVLHPLEGAVVIIFKKEMDPVTQLYTMTSTLEYKTTKADIQMPFTCSVTYYGPSGQKTIHSEQAVFDIYYPTEQVTIQVLPPKNAIKEGDNITLKCLGNGNPPPEEFLFYLPGQPEGIRSSNTYTLTDVRRNATGDYKCSLIDKKSMIASTAITVHYLDLSLNPSGEVTRQIGDALPVSCTISASRNATVVWMKDNIRLRSSPSFSSLHYQDAGNYVCETALQEVEGLKKRESLTLIVEGKPQIKMTKKTDPSGLSKTIICHVEGFPKPAIQWTITGSGSVINQTEESPYINGRYYSKIIISPEENVTLTCTAENQLERTVNSLNVSAISIPEHDEADEISDENREKVNDQA
B2: CD166-M9_vk3a/HcB (antibody, V domains shown)
VH: QITLKESGPTLVKPTQTLTLTCTFSGFSLSTYGMGVGWIRQPPGKALEWLANIWWSEDKHYSPSLKSRLTITKDTSKNQVVLTMTNMDPVDTATYYCVQIDYGNDYAFTYWGQGTLVTVSS
VL: DIVMTQSPLSLPVTPGEPASISCRSSQSLLHSNGITYLYWYLQKPGQSPQLLIYQMSNRASGVPDRFSGSGSGTDFTLKISRVEAEDVGVYYCAQNLELPYTFGQGTKLEIK
B3: CD166-M9_vK3a/HcC (antibody, V domains shown)
VH: QITLKESGPTLVKPTQTLTLTCTFSGFSLSTYGMGVGWIRQPPGKALEWLANIWWSEDKHYSPSLKSRLTITKDTSKNQVVLTITNVDPVDTATYYCVQIDYGNDYAFTYWGQGTLVTVSS
VL: DIVMTQSPLSLPVTPGEPASISCRSSQSLLHSNGITYLYWYLQKPGQSPQLLIYQMSNRASGVPDRFSGSGSGTDFTLKISRVEAEDVGVYYCAQNLELPYTFGQGTKLEIK
B4: CD166-M9_vK3b/HcC (antibody, V domains shown)
VH: QITLKESGPTLVKPTQTLTLTCTFSGFSLSTYGMGVGWIRQPPGKALEWLANIWWSEDKHYSPSLKSRLTITKDTSKNQVVLTITNVDPVDTATYYCVQIDYGNDYAFTYWGQGTLVTVSS
VL: DIVMTQSPLSLPVTPGEPASISCRSSQSLLHSNGITYLYWYLQKPGQSPQLLIYQMSNRASGVPDRFSSSGSGTDFTLKISRVEAEDVGVYYCAQNLELPYTFGQGTKLEIK
B5: CD166-M9_vK2/HcC (antibody, V domains shown)
VH: QITLKESGPTLVKPTQTLTLTCTFSGFSLSTYGMGVGWIRQPPGKALEWLANIWWSEDKHYSPSLKSRLTITKDTSKNQVVLTITNVDPVDTATYYCVQIDYGNDYAFTYWGQGTLVTVSS
VL: DIVMTQSPLSLPVTPGEPASISCRSSKSLLHSNGITYLYWYLQKPGQSPQLLIYQMSNLASGVPDRFSSSGSGTDFTLKISRVEAEDVGVYYCAQNLELPYTFGQGTKLEIK
B6: CD166-M9_vK3b/HcB (antibody, V domains shown)
VH: QITLKESGPTLVKPTQTLTLTCTFSGFSLSTYGMGVGWIRQPPGKALEWLANIWWSEDKHYSPSLKSRLTITKDTSKNQVVLTMTNMDPVDTATYYCVQIDYGNDYAFTYWGQGTLVTVSS
VL: DIVMTQSPLSLPVTPGEPASISCRSSQSLLHSNGITYLYWYLQKPGQSPQLLIYQMSNRASGVPDRFSSSGSGTDFTLKISRVEAEDVGVYYCAQNLELPYTFGQGTKLEIK

One assay deals with CD166-M9_chimera. Briefly: FACS; apparent Kd. A general note: A flow cytometer gives signals particle by particle.
Consider B1, for which the Kd was 1.12 nM.

The next assay addresses T1, human CD166 protein. Description: FACS; apparent Kd.
As to B2, the Kd came to 2.88 nM. The same measure, in the same setting: the value for B3 was 3.76 nM; that for B4 was 3.19 nM; that for B5 was 2.5 nM. On the same count and under the same terms, the value for B6 was 2.61 nM.

(Values after patent US20160355587A1 (published 2016).)
